# Patent US20210253718A1, “FRIZZLED5 PROTEIN-BINDING AGENTS” (Modmab Therapeutics Corporation, priority 2016, published 2021)
# T1: FZD8 CRD (Homo sapiens, UniProt Q9H461)
# T1 construct: K31-D155; GPI anchor signal (C); expressed in transfected cells; host or cells: CHO cells, lentiviral pLenti-puro
# T1 sequence (Q9H461 31-155): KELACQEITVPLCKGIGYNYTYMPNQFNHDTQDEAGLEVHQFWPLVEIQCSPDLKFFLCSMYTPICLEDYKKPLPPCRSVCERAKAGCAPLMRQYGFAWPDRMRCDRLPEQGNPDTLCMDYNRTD
# T2: FZD6 CRD (Homo sapiens, UniProt O60353)
# T2 construct: S20-P146; GPI anchor signal (C); expressed in transfected cells; host or cells: CHO cells, lentiviral pLenti-puro
# T2 sequence (O60353 20-146): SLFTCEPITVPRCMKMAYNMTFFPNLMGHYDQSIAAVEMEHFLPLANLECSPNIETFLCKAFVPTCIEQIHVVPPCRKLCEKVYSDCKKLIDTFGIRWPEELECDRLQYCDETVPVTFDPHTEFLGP
# T3: FZD9 CRD (Homo sapiens, UniProt O00144)
# T3 construct: G35-A161; GPI anchor signal (C); expressed in transfected cells; host or cells: CHO cells, lentiviral pLenti-puro
# T3 sequence (O00144 35-161): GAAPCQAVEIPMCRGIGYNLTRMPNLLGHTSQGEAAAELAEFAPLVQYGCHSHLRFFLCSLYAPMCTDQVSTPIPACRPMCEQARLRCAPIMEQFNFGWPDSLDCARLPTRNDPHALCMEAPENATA
# T4: FZD3 CRD (Homo sapiens, UniProt Q9NPG1)
# T4 construct: CRD of FZD1, FZD2, FZD3, FZD4, FZD5, FZD6, FZD7, FZD8, FZD9 or FZD10; GPI anchor signal (C); expressed in transfected cells; host or cells: CHO cells, lentiviral pLenti-puro
# T4 sequence (Q9NPG1 23-136 limits assumed): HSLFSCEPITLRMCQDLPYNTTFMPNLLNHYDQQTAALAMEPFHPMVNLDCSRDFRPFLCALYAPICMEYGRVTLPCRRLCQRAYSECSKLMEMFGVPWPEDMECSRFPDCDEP
# T5: FZD5 CRD (Homo sapiens, UniProt Q13467)
# T5 construct: K29-T156; GPI anchor signal (C); expressed in transfected cells; host or cells: CHO cells, lentiviral pLenti-puro
# T5 sequence (Q13467 29-156): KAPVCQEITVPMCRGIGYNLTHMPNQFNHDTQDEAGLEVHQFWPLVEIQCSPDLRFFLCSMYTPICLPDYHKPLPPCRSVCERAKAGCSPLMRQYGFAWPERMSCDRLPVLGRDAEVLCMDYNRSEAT
# How the values were obtained:
# Assay in all cases: Immunofluorescence of anti-FZD5 Fab binding to CHO cells overexpressing Frizzled CRD
# Parameters in all cases: key: −: no binding; +: very weak binder; ++: weak binder; +++: good binder; ++++: very good binder
# FZD7 CRD = target: T6, FZD7 CRD (Homo sapiens, UniProt O75084)
# T6 construct: D45-S169; GPI anchor signal (C); expressed in transfected cells; host or cells: CHO cells, lentiviral pLenti-puro
# Protocol: (§1) Plasmids: pLCKO lentiviral vector used for knockout (TKO) library construction and expression of individual gRNAs was constructed as described previously (Hart et al., 2015). Briefly, single guide RNA (sgRNA) scaffold was amplified from px330 (Addgene 42230) and cloned into pLKO.TRC005 lentiviral vector (Broad Institute, Cambridge, Mass.) using AgeI/EcoRI restriction sites. BfuAI sites were added at the 5′ end of the sgRNA scaffold for cloning the TKO library or individual gRNA target sequences. Lenti Cas9-2A-BsdR vector used to generate Cas9 stable expression cell lines was constructed as described previously (Hart et al., 2015). Briefly, lentiCRISPR pXPR_001 (Addgene 49535) was modified through removal of the sgRNA scaffold region through NdeI/EcoRI digest and blunt ends generation using Large Klenow Fragment (NEB). 2A-puro was replaced with 2A-BsdR by PCR using the NheI/MluI sites. Each of the 10 human Frizzled cysteine rich domains (CRDs) were cloned into the lentiviral expression plasmid pLenti-puro in the following cassette: FZD_CRD-MYC-GPI.
# (§2) To confirm that the FZD5-WNT7B circuit is not driven simply by expression and rule out the possibility of a disconnect between RNA and protein levels for the Wnt receptors in HPAF-II cells, a panel of recombinant Fabs were generated, alternatively referred to herein as ‘Frizzled profiler’, that can detect and discriminate all but one of the ten Frizzled receptors. […] To characterize the binding specificity of these Fabs on cells, a panel of 10 CHO cell lines was generated, each expressing the CRD domain of a different myc-tagged Frizzled family member anchored at the plasma membrane through a GPI anchor (CHO-myc-FZDGPI). Despite the high sequence identity between Frizzled family members (FIG. 7A, FIG. 7B), selective Fabs were identified for FZD4, FZD5, FZD6 and FZD10 as assessed by immunofluorescence and flow cytometry (FIG. 7D and FIG. 8). […] The FZD8 CRD is most homologous to that of FZD5 (FIG. 7B). These Fabs can be used to discriminate expression of FZD1, FZD2, FZD4, FZD5, FZD6, FZD7, FZD8, FZD9 and FZD10 (FIG. 7D and FIG. 8). The ‘Frizzled profiler’ therefore consists of 10 different Fabs that can be used to discriminate expression of 9 different Frizzled family members. The Frizzled profiler was then used to confirm that HPAF-II cells express FZD1, FZD5, FZD6 and possibly FZD8 (FIG. 7E).
# (§3) The binding of anti-FZD5 Fabs to cell surface-expressed Frizzled protein was further determined for each member of the Frizzled family via flow cytometry and immunofluorescence analysis of a panel of 10 CHO cell lines, each ectopically over-expressing the extracellular cysteine-rich domain (CRD) of a different Frizzled protein family member.
# FZD8 CRD = target: T1, FZD8 CRD
# Protocol: as §1, §2, §3
# FZD6 CRD = target: T2, FZD6 CRD
# Protocol: as §1, §2, §3
# FZD9 CRD = target: T3, FZD9 CRD
# Protocol: as §1, §2, §3
# FZD3 CRD = target: T4, FZD3 CRD
# Protocol: as §1, §2, §3
# FZD5 CRD = target: T5, FZD5 CRD
# Protocol: as §1, §2, §3
# FZD1 CRD = target: T7, FZD1 CRD (Homo sapiens, UniProt Q9UP38)
# T7 construct: D112-P238; GPI anchor signal (C); expressed in transfected cells; host or cells: CHO cells, lentiviral pLenti-puro
# Protocol: as §1, §2, §3
Molecule,"Immunofluorescence binding, Frizzled CRD overexpressed on CHO cells: FZD7 (FZD7 CRD)","Immunofluorescence binding, Frizzled CRD overexpressed on CHO cells: FZD8 (FZD8 CRD)","Immunofluorescence binding, Frizzled CRD overexpressed on CHO cells: FZD6 (FZD6 CRD)","Immunofluorescence binding, Frizzled CRD overexpressed on CHO cells: FZD9 (FZD9 CRD)","Immunofluorescence binding, Frizzled CRD overexpressed on CHO cells: FZD3 (FZD3 CRD)","Immunofluorescence binding, Frizzled CRD overexpressed on CHO cells: FZD5 (FZD5 CRD)","Immunofluorescence binding, Frizzled CRD overexpressed on CHO cells: FZD1 (FZD1 CRD)"
"Fab-2898: anti-FZD5 Fab with antibody variable region Fv-2898; CDR SEQ ID NOs: 35, 36, 37, 76, 113, 152 (antibody, V domains shown) VH: EVQLVESGGGLVQPGGSLRLSCAASGFNIYSYSMHWVRQAPGKGLEWVASIYSSSGSTSYADSVKGRFTISADTSKNTAYLQMNSLRAEDTAVYYCARAVWGLDYWGQGTLVTVSS VL: DIQMTQSPSSLSASVGDRVTITCRASQSVSSAVAWYQQKPGKAPKLLIYSASSLYSGVPSRFSGSRSGTDFTLTISSLQPEDFATYYCQQWWGYYSLITFGQGTKVEIK",+++,+,−,−,−,+++,++++
"Fab-2900: anti-FZD5 Fab with antibody variable region Fv-2900; CDR SEQ ID NOs: 35, 36, 39, 78, 115, 153 (antibody, V domains shown) VH: EVQLVESGGGLVQPGGSLRLSCAASGFNLSSYYIHWVRQAPGKGLEWVASISSSSSSTSYADSVKGRFTISADTSKNTAYLQMNSLRAEDTAVYYCARGALDYWGQGTLVTVSS VL: DIQMTQSPSSLSASVGDRVTITCRASQSVSSAVAWYQQKPGKAPKLLIYSASSLYSGVPSRFSGSRSGTDFTLTISSLQPEDFATYYCQQWYSGSSLFTFGQGTKVEIK",+,+,−,−,−,++++,−
"Fab-2899: anti-FZD5 Fab with antibody variable region Fv-2899; CDR SEQ ID NOs: 35, 36, 38, 77, 114, 153 (antibody, V domains shown) VH: EVQLVESGGGLVQPGGSLRLSCAASGFNLYYYYMHWVRQAPGKGLEWVASIYPSSGSTSYADSVKGRFTISADTSKNTAYLQMNSLRAEDTAVYYCARGALDYWGQGTLVTVSS VL: DIQMTQSPSSLSASVGDRVTITCRASQSVSSAVAWYQQKPGKAPKLLIYSASSLYSGVPSRFSGSRSGTDFTLTISSLQPEDFATYYCQQWYSSYGLITFGQGTKVEIK",+++,+,−,−,−,+++,+++

# Now from value to molecule:
"Immunofluorescence binding, Frizzled CRD overexpressed on CHO cells: FZD7 (FZD7 CRD)","Immunofluorescence binding, Frizzled CRD overexpressed on CHO cells: FZD8 (FZD8 CRD)","Immunofluorescence binding, Frizzled CRD overexpressed on CHO cells: FZD6 (FZD6 CRD)","Immunofluorescence binding, Frizzled CRD overexpressed on CHO cells: FZD9 (FZD9 CRD)","Immunofluorescence binding, Frizzled CRD overexpressed on CHO cells: FZD3 (FZD3 CRD)","Immunofluorescence binding, Frizzled CRD overexpressed on CHO cells: FZD5 (FZD5 CRD)","Immunofluorescence binding, Frizzled CRD overexpressed on CHO cells: FZD1 (FZD1 CRD)",Molecule
+,+,−,−,−,++++,,"Fab-2901: anti-FZD5 Fab with antibody variable region Fv-2901; CDR SEQ ID NOs: 35, 36, 40, 79, 116, 154 (antibody, V domains shown) VH: EVQLVESGGGLVQPGGSLRLSCAASGFNISYSYMHWVRQAPGKGLEWVASIYSYSSYTYYADSVKGRFTISADTSKNTAYLQMNSLRAEDTAVYYCARSWYYWSPSSGMDYWGQGTLVTVSS VL: DIQMTQSPSSLSASVGDRVTITCRASQSVSSAVAWYQQKPGKAPKLLIYSASSLYSGVPSRFSGSRSGTDFTLTISSLQPEDFATYYCQQGGFLITFGQGTKVEIK"
+,−,−,−,−,+,,"Fab-2905: anti-FZD5 Fab with antibody variable region Fv-2905; CDR SEQ ID NOs: 35, 36, 44, 83, 120, 157 (antibody, V domains shown) VH: EVQLVESGGGLVQPGGSLRLSCAASGFNLSYYYMHWVRQAPGKGLEWVASIYSSYSYTSYADSVKGRFTISADTSKNTAYLQMNSLRAEDTAVYYCARSGYALDYWGQGTLVTVSS VL: DIQMTQSPSSLSASVGDRVTITCRASQSVSSAVAWYQQKPGKAPKLLIYSASSLYSGVPSRFSGSRSGTDFTLTISSLQPEDFATYYCQQSSWYYGYPFTFGQGTKVEIK"
+,++,−,−,−,++++,−,"Fab-2902: anti-FZD5 Fab with antibody variable region Fv-2902; CDR SEQ ID NOs: 35, 36, 41, 80, 117, 153 (antibody, V domains shown) VH: EVQLVESGGGLVQPGGSLRLSCAASGFNISYYYIHWVRQAPGKGLEWVASISSSSSSTSYADSVKGRFTISADTSKNTAYLQMNSLRAEDTAVYYCARGALDYWGQGTLVTVSS VL: DIQMTQSPSSLSASVGDRVTITCRASQSVSSAVAWYQQKPGKAPKLLIYSASSLYSGVPSRFSGSRSGTDFTLTISSLQPEDFATYYCQQWYAFGALITFGQGTKVEIK"
